Experimental data reported in paper PMC4238996 (PLoS Neglected Tropical Diseases, 2014).

T1: M. tuberculosis Rv0020c (M. tuberculosis H37Rv, UniProt P71590 1-527)
T1 sequence: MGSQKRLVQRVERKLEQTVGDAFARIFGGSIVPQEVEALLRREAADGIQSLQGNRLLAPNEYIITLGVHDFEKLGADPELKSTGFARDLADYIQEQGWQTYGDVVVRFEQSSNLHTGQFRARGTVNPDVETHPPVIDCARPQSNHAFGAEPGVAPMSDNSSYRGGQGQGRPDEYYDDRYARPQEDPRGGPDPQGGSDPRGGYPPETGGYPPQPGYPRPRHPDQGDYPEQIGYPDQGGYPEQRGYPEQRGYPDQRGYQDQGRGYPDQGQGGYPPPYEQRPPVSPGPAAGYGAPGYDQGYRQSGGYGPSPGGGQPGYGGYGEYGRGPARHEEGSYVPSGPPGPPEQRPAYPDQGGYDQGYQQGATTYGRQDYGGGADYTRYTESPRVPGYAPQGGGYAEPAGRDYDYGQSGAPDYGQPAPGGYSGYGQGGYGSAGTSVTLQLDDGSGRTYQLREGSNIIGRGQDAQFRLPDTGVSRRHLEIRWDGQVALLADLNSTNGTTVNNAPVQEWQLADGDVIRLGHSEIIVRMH


Target: T1, M. tuberculosis Rv0020c
Test: ELISA
Details: both partners purified

Row | Binder | binding result
1 | MBP-tagged MupDivIVA-P (Mup012c residues 1-87, phosphorylated by co-expression with PknQ) (natural protein, M. ulcerans Agy99 (plasmid pMUM001), UniProt Q6MZ92 1-87, looked up, also called phosphorylated MupDivIVA) MSHSELLDPALPKSPFGKQGYRYDDVDVFLRLIADELQGSDLSESDIHSITFRCAAPLTRGYDTESVDRFLDRIAETIARGHGDEGQ | binds
2 | MBP-tagged MupDivIVA S43/45/49A triple mutant (natural protein) MSHSELLDPALPKSPFGKQGYRYDDVDVFLRLIADELQGSDLAEADIHAITFRCAAPLTRGYDTESVDRFLDRIAETIARGHGDEGQ | binds
